First the molecules themselves.
B1: target 1 MT 5'PFS UAG 3'PFS CAC (mixed)
RNA 1: CACCCGUGCAAAAAUGCAGGGGUCUAAAACUGAGCGGAUAACCUCUCUAUGG
RNA 2: GGGAAUGGAUCCACAUCUACGAAUUCUAGCCAUAGAGAGGUUAUCCGCUCACACAGAUCGGAAGAGCACACGU
B2: target 1 MT 5'PFS CUG 3'PFS UCU (mixed)
RNA 1: CACCCGUGCAAAAAUGCAGGGGUCUAAAACUGAGCGGAUAACCUCUCUAUGG
RNA 2: GGGAAUGGAUCCACAUCUACGAAUUCCUGCCAUAGAGAGGUUAUCCGCUCAUCUAGAUCGGAAGAGCACACGU
B3: target 1 MT 5'PFS CCG 3'PFS AGU (mixed)
RNA 1: CACCCGUGCAAAAAUGCAGGGGUCUAAAACUGAGCGGAUAACCUCUCUAUGG
RNA 2: GGGAAUGGAUCCACAUCUACGAAUUCCCGCCAUAGAGAGGUUAUCCGCUCAAGUAGAUCGGAAGAGCACACGU
B4: target 1 MT 5'PFS UAG 3'PFS CAA (mixed)
RNA 1: CACCCGUGCAAAAAUGCAGGGGUCUAAAACUGAGCGGAUAACCUCUCUAUGG
RNA 2: GGGAAUGGAUCCACAUCUACGAAUUCUAGCCAUAGAGAGGUUAUCCGCUCACAAAGAUCGGAAGAGCACACGU
B5: target 1 MT 5'PFS GAA 3'PFS AGA (mixed)
RNA 1: CACCCGUGCAAAAAUGCAGGGGUCUAAAACUGAGCGGAUAACCUCUCUAUGG
RNA 2: GGGAAUGGAUCCACAUCUACGAAUUCGAACCAUAGAGAGGUUAUCCGCUCAAGAAGAUCGGAAGAGCACACGU
B6: target 1 MT 5'PFS UAG 3'PFS CAU (mixed)
RNA 1: CACCCGUGCAAAAAUGCAGGGGUCUAAAACUGAGCGGAUAACCUCUCUAUGG
RNA 2: GGGAAUGGAUCCACAUCUACGAAUUCUAGCCAUAGAGAGGUUAUCCGCUCACAUAGAUCGGAAGAGCACACGU
B7: target 1 MT 5'PFS CCG 3'PFS AGA (mixed)
RNA 1: CACCCGUGCAAAAAUGCAGGGGUCUAAAACUGAGCGGAUAACCUCUCUAUGG
RNA 2: GGGAAUGGAUCCACAUCUACGAAUUCCCGCCAUAGAGAGGUUAUCCGCUCAAGAAGAUCGGAAGAGCACACGU
B8: target 1 MT 5'PFS GUG 3'PFS GUC (mixed)
RNA 1: CACCCGUGCAAAAAUGCAGGGGUCUAAAACUGAGCGGAUAACCUCUCUAUGG
RNA 2: GGGAAUGGAUCCACAUCUACGAAUUCGUGCCAUAGAGAGGUUAUCCGCUCAGUCAGAUCGGAAGAGCACACGU
B9: target 1 MT 5'PFS UAG 3'PFS CAG (mixed)
RNA 1: CACCCGUGCAAAAAUGCAGGGGUCUAAAACUGAGCGGAUAACCUCUCUAUGG
RNA 2: GGGAAUGGAUCCACAUCUACGAAUUCUAGCCAUAGAGAGGUUAUCCGCUCACAGAGAUCGGAAGAGCACACGU
B10: target 1 U8C,U11G (mixed)
RNA 1: CACCCGUGCAAAAAUGCAGGGGUCUAAAACUGAGCGGAUAACCUCUCUAUGG
RNA 2: GGGAAUGGAUCCACAUCUACGAAUUCGUACCAUAGAGAGGGUACCCGCUCACCGAGAUCGGAAGAGCACACGU
B11: target 1 MT 5'PFS GUG 3'PFS GUG (mixed)
RNA 1: CACCCGUGCAAAAAUGCAGGGGUCUAAAACUGAGCGGAUAACCUCUCUAUGG
RNA 2: GGGAAUGGAUCCACAUCUACGAAUUCGUGCCAUAGAGAGGUUAUCCGCUCAGUGAGAUCGGAAGAGCACACGU
B12: target 1 MT 5'PFS ACC 3'PFS CCG (mixed)
RNA 1: CACCCGUGCAAAAAUGCAGGGGUCUAAAACUGAGCGGAUAACCUCUCUAUGG
RNA 2: GGGAAUGGAUCCACAUCUACGAAUUCACCCCAUAGAGAGGUUAUCCGCUCACCGAGAUCGGAAGAGCACACGU
B13: target 1 MT 5'PFS GCG 3'PFS UAC (mixed)
RNA 1: CACCCGUGCAAAAAUGCAGGGGUCUAAAACUGAGCGGAUAACCUCUCUAUGG
RNA 2: GGGAAUGGAUCCACAUCUACGAAUUCGCGCCAUAGAGAGGUUAUCCGCUCAUACAGAUCGGAAGAGCACACGU

As usually defined, the Kd is the concentration at which binding is half-saturated.

This data set has as its target T1, EsCas13d, nuclease-dead (Eubacterium siraeum, UniProt B0MS50, R295A;H300A;R849A;H854A).
T1 sequence: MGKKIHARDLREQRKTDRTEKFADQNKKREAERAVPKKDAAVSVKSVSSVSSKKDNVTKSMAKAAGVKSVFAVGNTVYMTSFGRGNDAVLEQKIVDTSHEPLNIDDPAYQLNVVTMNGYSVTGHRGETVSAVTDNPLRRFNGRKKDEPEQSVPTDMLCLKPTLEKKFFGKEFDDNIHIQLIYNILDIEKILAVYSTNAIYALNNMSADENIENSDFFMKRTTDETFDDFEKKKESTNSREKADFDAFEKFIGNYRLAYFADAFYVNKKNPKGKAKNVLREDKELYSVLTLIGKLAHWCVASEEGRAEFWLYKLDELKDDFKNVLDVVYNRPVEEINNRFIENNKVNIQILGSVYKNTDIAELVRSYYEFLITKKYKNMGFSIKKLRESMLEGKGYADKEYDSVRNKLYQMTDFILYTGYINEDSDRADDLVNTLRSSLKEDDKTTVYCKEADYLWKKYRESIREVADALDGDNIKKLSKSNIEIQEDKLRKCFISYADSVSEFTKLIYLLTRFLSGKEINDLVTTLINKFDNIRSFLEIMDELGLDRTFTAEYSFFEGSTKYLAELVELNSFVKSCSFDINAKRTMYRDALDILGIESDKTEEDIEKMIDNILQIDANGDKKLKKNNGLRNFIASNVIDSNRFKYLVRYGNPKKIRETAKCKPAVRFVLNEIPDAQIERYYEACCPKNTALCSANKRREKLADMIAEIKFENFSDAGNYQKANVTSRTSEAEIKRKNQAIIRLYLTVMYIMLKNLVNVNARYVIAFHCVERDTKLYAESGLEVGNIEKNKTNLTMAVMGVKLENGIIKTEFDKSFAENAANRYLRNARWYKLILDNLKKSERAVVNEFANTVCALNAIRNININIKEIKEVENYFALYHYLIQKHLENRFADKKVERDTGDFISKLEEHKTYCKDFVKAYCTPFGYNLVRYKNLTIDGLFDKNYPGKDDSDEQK
In words: crRNA (strand 1, pre-loaded); Mg2+; 40 mM Tris-HCl pH 7.5, 150 mM NaCl, 6 mM MgCl2, 1 mM DTT, 0.1% Tween-20, 0.2 mg/ml BSA; 25 C; 10 min per concentration, then washed. The conditions noted are these: tags: His6-TwinStrep-SUMO cleaved; N-terminal SNAP kept (SNAP-Surface 488); label: 3' end held by stalled T7 RNA polymerase.
As for B1, the Kd was about 43 nM.
The same measure for B2: 3.55 ± 0.8 nM; for B3: 10 ± 4.5 nM; for B4: 51 ± 11 nM.
The same measure for B5: 62 ± 21.5 nM.
B6: the Kd stood at 65 ± 21 nM.
In turn, B7 yielded a Kd of 4.45 ± 1.5 nM.
As for B8, the dissociation constant Kd amounted to 17 ± 2.6 nM.
The molecule B9 had a Kd of 42.5 ± 13 nM.
On to B10, for which the affinity, expressed as Kd, was 27 ± 2.5 nM.
Turning to B11, binding was put at a Kd of 8.9 ± 0.55 nM.
The same measure for B12: about 18.5 nM.
Consider B13, for which the Kd is 13.2 ± 2.3 nM.

These data come from paper PMC10786891, “Massively parallel profiling of RNA-targeting CRISPR-Cas13d”.
